One molecule from paper PMC10104018 can be followed below.

Series [1] concerns the target T1, RGG-GFP-RGG, TXTL-expressed (UniProt D0PV95 1-168).
T1 chain: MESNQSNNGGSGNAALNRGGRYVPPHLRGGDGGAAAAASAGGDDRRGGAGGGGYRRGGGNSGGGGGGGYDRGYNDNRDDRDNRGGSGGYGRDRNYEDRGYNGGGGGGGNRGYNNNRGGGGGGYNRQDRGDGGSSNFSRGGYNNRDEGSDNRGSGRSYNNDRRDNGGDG
Put plainly: confocal fluorescence co-localization to condensates.

For series [2], the target named is T2, RGG-GFP-RGG (His), purified (UniProt D0PV95 1-168).
T2 chain: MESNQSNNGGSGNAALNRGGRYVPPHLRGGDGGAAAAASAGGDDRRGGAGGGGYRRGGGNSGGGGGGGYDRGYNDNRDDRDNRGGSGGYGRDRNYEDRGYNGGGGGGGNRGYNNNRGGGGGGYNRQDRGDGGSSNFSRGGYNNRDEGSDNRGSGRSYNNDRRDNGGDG
The description is as above.

Turning to UUUUUUUUUUUUUUU (ssRNA) [Cy5-U15], the binding result in series [1] and in series [2] was “binds” in each case.
